The nature of data set [1]: anti-Hag western densitometry of cell lysates. The note with it: glycan lost; control: native V3, Dox, no Tun.
Data set [2] is described as follows: anti-Hag immunocytochemistry, extracellular V3 staining. The note with it: glycan lost; control: native V3, Dox, no Tun.
Data set [3] in a line: conditioned-media western and immunocytochemistry. The conditions noted are these: glycan lost; control: same mutant without Tun.

Regarding “versican isoform V3 (rat V3): tunicamycin”, the “expression_or_secretion, fold_change” value in data set [1] is “decreases”. Besides, in data set [2], the localisation_or_trafficking result is “no change”. In the case of “versican isoform V3 (rat V3): N330Q + tunicamycin”, in data set [3], the expression_or_secretion entry is “abolishes”. On the same count and under the same terms, as for “versican isoform V3 (rat V3): N57Q + tunicamycin”, the entry is “abolishes”.
